Results as given in paper PMC11053944, “FRET Assays for the Identification of C. albicans HSP90-Sba1 and Human HSP90α-p23 Binding Inhibitors” (Pharmaceuticals, 2024).

Tests used:
[1] = target: T1, human HSP90α-mNeonGreen–p23-mScarlet-I binding (Homo sapiens, UniProt P07900, E47A); assay: FRET characterization of model inhibitors and ATP on human HSP90α-p23 binding; details: 5 mM ATP
T1 construct: made in house; host or cells: E. coli Rosetta2(DE3) pLysS
Protocol: In this investigation, 1 µM HSP90-mNeonGreen was incubated with 2 µM Sba1-mScarlet-I in reaction buffer containing 5 mM ATP either alone (UC) or with the addition of 20 µM Sba1. As a negative control, samples containing 20 µM bovine serum albumin (BSA) were used.
FRET experiments were carried out in 384-well microtiter plates (Art. No. 3766 Corning, NY, USA, or Art. No. 781906, Greiner Bio-One GmbH, Frickenhausen, Germany) containing a final volume of 20 µL and measured with a microplate reader Infinite M200Pro (Tecan, Männedorf, Switzerland). The fluorescence was measured in three channels: excitation (ex.): 488 nm/emission (em.): 525 nm (mNeonGreen fluorescence), ex.: 561 nm/em.: 610 nm (mScarlet-I fluorescence) and the FRET channel ex.: 488 nm/em.: 610 nm. The excitation and emission bandwidths were set to 9 and 20 nm, respectively. Experiments for the determination of the equilibrium dissociation constants were performed with a filter-based microplate reader Infinite F200Pro (Tecan, Männedorf, Switzerland). The fluorescence was measured in three channels using the following filters: ex.: 485 ± 20 nm/em.: 535 ± 20 nm (mNeonGreen channel), ex.: 535 ± 20 nm/em.: 612 ± 10 nm (mScarlet-I channel) and the FRET channel ex.: 485 ± 20 nm/em.: 612 ± 10 nm. FRET emission (EmFRET) was calculated according to Song et al. 2011 [81]:(1) EmFRET=FLDA−x×FLDD−(y×FLAA) where FLDA is the fluorescence signal of the FRET channel and FLDD and FLAA are fluorescence signals from the mNeonGreen and mScarlet-I channels, respectively. The correction factors x and y were calculated as follows:(2) x=FLDA/FLDD for samples containing only the donor fluorophore or fluorescent fusion proteins with mNeonGreen and (3) y=FLDA/FLAA for samples containing only the acceptor fluorophore or fluorescent fusion proteins with mScarlet-I in the same concentration as samples containing both the donor and acceptor.
All experiments were carried out in reaction buffer (40 mM HEPES/KOH pH 7.5, 20 mM KCl, 5 mM MgCl2, 20 mM Na2MoO4, Triton-X 100 0.1%). HEPES and KCl were purchased from AppliChem, Darmstadt, Germany. KOH and MgCl2 were obtained from VWR Chemicals, Darmstadt, Germany. Na2MoO4 was from Merck, Darmstadt, Germany. Triton-X 100 was purchased from Serva, Heidelberg, Germany.
For C. albicans Sba1 competition experiments for HSP90-mNeonGreen–Sba1-mScarlet-I binding, 1 µM HSP90-mNeonGreen and 1 µM Sba1-mScarlet-I were incubated with varying concentrations of Sba1 in a range of 0–25,000 nM (lowest non-zero concentration 12 nM) in reaction buffer containing 5 mM ATP. The experiment was performed twice in nonaplicates. For human p23 competition experiments for HSP90α-mNeonGreen–p23-mScarlet-I binding, 1 µM HSP90α-mNeonGreen and 1 µM p23-mScarlet-I were incubated with varying concentrations of p23 in a range of 0–50 000 nM (lowest non-zero concentration 23 nM) in reaction buffer containing 5 mM ATP. The experiment was performed twice in hexaplicates. […] The experiment was performed thrice in triplicates. […] The IC50,rel values were calculated using the equation log (inhibitor) vs. response-variable slope (four parameters) in GraphPad Prism 5. Ki values for inhibition of HSP90-mNeonGreen–Sba1-mScarlet-I/p23-mScarlet-I binding by non-labeled Sba1/p23 were calculated with One Site—Fit Ki in GraphPad Prism 5. […] The EC50,rel values were calculated using the log (agonist) vs. response-variable slope (four parameters) equation in GraphPad Prism 5.

[2] = target: T2, human HSP90α–p23 binding (Homo sapiens, UniProt P07900); assay: FRET inhibitor screening assay, human HSP90α-p23 binding; details: 10 or 100 µM, triplicates, 3 mM ATP, 1% DMSO, 15 min 37 °C
T2 construct: made in house; host or cells: E. coli Rosetta2(DE3) pLysS
Description: We used the Z′ factor (Z′) to optimize the FRET assays for screening purposes. Z′ represents a simple statistical parameter for the quality assessment and optimization of HTS assays and screening assays in general. It is a measure that determines the degree of signal separation between binding and non-binding data sets. Calculation of the Z′ factor is based on the standard deviation of the individual data sets as well as their general signal separation. Values ≥ 0.5 can be classified as excellent for screening purposes. […] When the fluorescent fusion proteins of HSP90 and co-chaperones bind to each other, FRET occurs between donor and acceptor fluorophores, and the sensitized emission (EmFRET) signal increases. Consequently, the fluorescence intensity of the donor decreases (FLDD). […] We defined the ‘hit threshold’ as a decrease in readout signal of more than 3 standard deviations (SDs) from the mean signal of the binding control. This constitutes a common threshold for hit identification in HTS campaigns.
The excitation and emission bandwidths were set to 9 and 20 nm, respectively. Experiments for the determination of the equilibrium dissociation constants were performed with a filter-based microplate reader Infinite F200Pro (Tecan, Männedorf, Switzerland). […] The correction factors x and y were calculated as follows:(2) x=FLDA/FLDD for samples containing only the donor fluorophore or fluorescent fusion proteins with mNeonGreen and (3) y=FLDA/FLAA for samples containing only the acceptor fluorophore or fluorescent fusion proteins with mScarlet-I in the same concentration as samples containing both the donor and acceptor.
For screening for the identification of ATP-competitive C. albicans HSP90 and HSP90-Sba1 binding inhibitors, 10 µL of HSP90-mNeonGreen (2 µM) and Sba1-mScarlet-I (4 µM) in HEPES buffer (40 mM HEPES/KOH pH 7.5, 20 mM KCl) was mixed with 10 µL of 200 µM compound solution in 2x reaction buffer (40 mM HEPES/KOH pH 7.5, 20 mM KCl, 10 mM MgCl2, 40 mM Na2MoO4, Triton-X 100 0.2%), 6 mM ATP, 2% DMSO, resulting ultimately in constant HSP90-mNeonGreen concentrations of 1 µM and Sba1-mScarlet-I 2 µM in reaction buffer. Samples for binding control (3 mM ATP, final concentration) and non-binding control (no ATP) were prepared in the same manner without compounds. The samples were incubated for 15 min at 30 °C prior to measurement. The assay for the human HSP90α–p23 binding inhibitor identification was performed analogously, with the exception that samples were incubated for 15 min at 37 °C prior to measurement. Since binding samples show both a high EmFRET as well as a reduction in donor emission (FLDD), we calculated the quotient (EmFRET/FLDD) to derive an improved signal separation and robustness. The nucleoside-mimetics library was obtained from Enamine (catalog No. NML-320-X-20, Enamine Ltd., Kyiv, Ukraine). Z′ and Z factors were calculated based on Zhang et al..

[3] = target: human HSP90β; design: method as in PMID 16403413; details: read-out: Kd of human HSP90β–p23 complex; cited from earlier work
[4] = system: human HSP90α; design: method as in PMID 16403413; details: cited from earlier work

In the case of “p23: unlabeled human HSP90 co-chaperone p23 (Q15185), His6-tagged”, the “effect on FRET emission (EmFRET) versus untreated control” value ([1]; 20 µM added, 1 µM HSP90α-mNeonGreen, 2 µM p23-mScarlet-I) is reported as “significant reduction in FRET emission”, the IC50 ([1]; donor and acceptor both 1 µM, read-out: relative IC50, inhibition of HSP90α-mNeonGreen–p23-mScarlet-I binding) is reported as 1.4 ± 0.2 µM and the “hit identification (EmFRET/FLDD decrease of more than 3 SDs from binding control mean)” value [2] is reported as “identified as hits”. The Kd [3] was 1.5 µM and the “effect on HSP90 ATPase activity upon binding” value [4] was “complete abrogation”.
